Stoichiometry N data for one substance are collected here from article PMC9317729.

For this experiment, the target named is S-RBD-Rhizavidin fusion protein (SARS-CoV-2 | not stated) (UniProt P0DTC2). Nature of the experiment: SEC-MALS; HPLC-SEC on AdvanceBio SEC 1.9 μm column, 0.4 mL/min, 20 mM HEPES, 100 mM sodium chloride, 25 °C; about 20 micrograms injected; MALS with first order Zimm fit. A general note: SEC sorts molecules by how far they enter the pores of the column.

“S-RBD-Rhizavidin fusion protein (from UniProt P0DTC2 331-524)” came in with a stoichiometry N of 2.

For orientation: stoichiometry N means the number of molecules, sites or subunits per partner or assembly.
